Experimental data as given in the DeepSol protein solubility set.

Assay: soluble on expression in E. coli; label from the status in PepcDB or PDB records

Sequence | soluble on expression in E. coli
MGSDKIHHHHHHMRGGNIKAIVYLPLDPEKAKQNNLPVKLPVLAEDLPKVLEEDRIPLDVILRGLEAQYEITKDEYYRSYYVFFLYEKFKQLLREGKLDEAEKILEKAKEVQYDYRYHFYRGLLLKHRGELGEAEIEMRLAISMNDRFAPAYFELAGILKEKNEIEDSLLFYEKAYEVNKEFLLPLLKKGDLLLEEGRLEEAIEEYRRILEKDSNFVEVYERLGVIYNQLQRFKEAEKFFKKALEIERKDHVEYNLSYTLIKLGKLFEALEILKRLYEKNPDDPMVANEYGLLLKTLGLYEEALEVFEDAYRRHKEEEILKYNYGTILLHFEKEKAVSILSEISGELKDRAEFMISLAEKDVVIPSYEEFEWLKDYFFEGTIDVVALSEEIDSEDEDAKRRIERLREGEFPFYDTTLDSSEMLEVILGIMFESPDIFKMEENAVKFVSAFYGSSVMIASTIVLTRTFQYFLAEEEPTMEELLRELVAETQDVNWKFSLRLARFRHADRFDFNRLSDLVIAFLQSIEQGTPVSDDERLKYLLEKLTFQKEG | not soluble
MGSDKIHHHHHHMRIAQVAPLWERVPPPAYGGIELVVGLLTDELVRRGHEVTLFASGDSISLANLVSVHPRALRLDSSVKEYGIYEMLQLSTVYERADEFDIIHSHMGCASLPYTKLVKTPTVHTLHGIFTPDNEKMFRYAKTEPFVSISDAQRDLRLGLNYVGTVYNGIDVNSYKFYPQPDEPPYLAFLGRISPEKGTHLAIEIAKKSGWHLKIAGKVDVVDVEYFEKEIKPLIDGKQIEYLGEADHTQKNVLMGGAVATLFPITWREPFGLVMVESMASGTPVIAMNLGSTTEVIAHGKTGFLCSNVEECVSAIAKVADLDRYTCREYVQNRFSLQAMTEGYEEVYRQILQQRFANNGHHRSTVALSKV | not soluble
MGSDKIHHHHHHMRILGIETSCDETGVAIYDEQRGLIANQLYSQIEMHADYGGVVPELASRDHIRKTLPLIQAALKEANLTASEIDGIAYTAGPGLVGALLVGATIARALAYAWNVPALAVHHMEGHLMAPMLEENPPEFPFIALLISGGHTQLIKVAGVGEYEILGESIDDAAGEAFDKTGKLLGLDYPAGVALSQLAEKGTPNRFVFPRPMTDRPGLDFSFSGLKTFAANTINAQLDENGQLNEQTRCDIAHAFQQAVVDTIIIKCKRALQQTGYSRLVMAGGVSANKQLRAELATMMQALKGQVYYPRPQFCTDNGAMIAYTGFIRLKKGEKTDLSVSVKPRWPMTTLLKLSAHHKV | not soluble
MGSDKIHHHHHHMRILSGMRPTGKLHIGHLVGALENWVKLQEEGNECFYFVADWHALTTHYDDVSKLKEYTRDLVRGFLACGIDPEKSVIFVQSGVKEHAELALLFSMIVSVSRLERVPTYKEIKSELNYKDLSTAGFLIYPVLQAADILIYKAEGVPVGEDQVYHIELTREIARRFNYLYDEVFPEPEAILSRVPKLPGTDGRKMSKSYGNIINLEISEKELEQTILRMMTDPARVRRSDPGNPENCPVWKYHQAFDISEEESKWVWEGCTTASIGCVDCKKLLLKNMKRKLAPIWENFRKIDEDPHYVDDVIMEGTKKAREVAAKTMEEVRRAMNLMF | soluble
MGSDKIHHHHHHMRKISVFDTTLRDGEQSAGVNLNFEEKMEIAKQLERLGVDIIEAGFPASSQGDFQSVKAIAETVKGSSVTGLARSVQKDIDAAWEALKSAEEPRIHLFIATSPIHMEHKLRMTPEQVIEKAVESVKYAASRFKHVQWSAEDASRSDFPFLAQIIEAVIQAGATVINLPDTVGYTTPQEIKRMFQYMKQNVPSIDKVSLSTHNHDDLGMAVANSLAAIQGGADQVECTINGIGERAGNASLEEIAVALNIRKDHYETETGLILKEIKRTSSLVSKLTGMVVPNNKAVVGANAFAHESGIHQDGVLKNKQTYEIITPEMVGVSSNSMVLGKHSGRHAFKTKVQELGFTGTDEQLNNIFKAFKDLADKKKEITEDDLFALMTEQTVGGETNHYELQTLQVNYGSNLTNTATITMKLPSGEVAEEAATGSGSVEAIYNTLERLLDAPVKLLDYRIQSITGGRDALADVYVQMDYQGVVSSGRGTAHDVLEASAKAYLNAVNRTINRKKYAEVYGSKVEV | not soluble
MGSDKIHHHHHHMRKKLISILVDGVSADTFEKHAHRLPNMRHLAERGLRVRRLKSAVPATSVPGRATMLTGVGPETHGIYGNHIFRGDASVAPLAEDLLVPTIATHARQAGLDVAAIGQALVNPRDTSVYVSPWWLRGFMTGYRFSKMVTPEALAASRAIHDPEDRLAKAGLTEMDAFRDAADGGAPHLISGLALDQFLNRAVVALLGSDRPPDLLLTEIEMPDAFQHYLGYDSPAGIWSVEFADMLIGNLLAVLERTGRREDYVIAVASDHGHGFVDTAIFPEAIIPDMHWMTEGASLYVSLKAAGDLERVTERLLPYGVELWNDHHVPENLRGTVAMFVAPPRHSFEERPSDASGPLVATGSPHLISTHGFRPGSPEDDRMFILSGGGIAPKVIKAADADQFAPTLASVLGLPLEPYAGRSLIAEESPIARSPQSLELHLK | not soluble
MGSDKIHHHHHHMRKLGFVLFVLITAVMTAQEEPLVSNIFQDTYILDALADISAQTGIPIIADTTVTGFITMELNEVPLEQALKMILMPGGYVFKKMDGFYLVGSPDPANPAFRYLAVTKTYKLKYITTADAQELLPAVYKSYVKFNEKNNMVTITAPEEIIQEFEEDLKKIDIPIPQVKISVIVTEVSKDYSNELGLNSLDYSFGSGQEFNENWSATLGLVTGIIDVQTDVFGQILAQLKLLEEDQKAKITADPWIIVKSGEKASLFLGERQVVLLQAEGAVSRIESIDVGVSIDIQPRVMDKEELELTLSPKVSHFAGEKLGTFAVKQNELSTTLFLKNGQTVVISGATIEDSAQTSSGVPILNKIPLIRYLFGGTTKKDSQKELYIFIKAEIQGSE | not soluble
MGSDKIHHHHHHMRKLISIILLLLTININSQIVELRPVKVPAEHAEYFETIHTEYSIKTAQDAKDKGKLYGWWVAKRLNTNEDDFNYLFITVHPSVESLIDNEYWWQNSEEVTGYKPEILYKMADLFEFDKQYIYQVEMQIPDAAEAKYIIINFATPDDLNTVLKESKEIVMPHFQKNLIKSGMVGWGVATKITPQGSNYSSFSTWDSYDSLENMMKHLGGGAAIEGLPLNKLTPIEWSMRPIFRVITGTK | not soluble
MGSDKIHHHHHHMRKMKNNDKSVITVDLNDPVKSLEYLEEAFQIGTFILKNSPVNFKRLAKVLSDLDTFYNLDFKTKIDISGQISGGGATRGYFPLGVESGLVDVFEKKESYSFGWPDNEIPDSDASNLSLVAPNIYPDHGYINPDDINGLIKDFANAAKKLSRLIEIILFNGKTVLPIDESSDFQSLLRSFRYYKKTEFDPPNTGANSLHTDWNLITLVYADADGYQYRDNEGNFQNIIPEMEDCLIVNFGDFLSAWTGGKIVSPWHQVVEAKKKDVRNSLVFFYYPAASSSAVKNPIYNQGEPLSLFVDQSDPLNRLWDFSKIETMNEMYAGKWKQVSRK | not soluble
MGSDKIHHHHHHMRKVGMTTTIPVEVVYAAGLIPVDLNNIFVTHENPQSLVEEAEMAGYPRNLCAWIKGLYSTILQNDDIQTLIAVTQGDCSNTHALMETLEMAGVNVIPFAFPFDRDYDLLKLQMEKLINTLGTTWDEVYHAKKRLDAIRSKVHELDRLTWQGDRVRGWDNHLYQVCCSDLEGDPEDFGRRVDQYLAELPAKEPIKAKVRLAYIGVPPIMDDLYDYVEERGARVVFNEVQRQFTMPFATDDIVEQYRIYSYPYGIFYRLQDISRELEQRQVDGVIHYAQSFCYRQIEDLIVRQKLKYPILTLEGDKPNKLDARTRMRLDAFLDMLR | not soluble
MGSDKIHHHHHHMRKWLLGVTAALALTALAACGTESSSTSGEEDQDVTIGYFPNLDHAAAIVGKEKGFFAEELGEEKVEFTHFPNGNDFIEALSTGSIDIGYVGPGPAINYYLTGGDVVVLGSAANGATLIVARDGSGIDTLDDFDGKSFCTPGNGCTHNVQLEIMLKELGLESNRVGGTVEHQSRIAPSNMVAMFEQGQIDAAAAPEPWGTYLVEELGAHVVAEWNDVFLGEELASVVVVTTREFLENHPEQVEAFLRAHVKSVEFAQEDVDATLETVNDALFDLTQNRLPEDVLYKAWERMAVTTDTYPDALQAWADASYELKFMDEDPNLDGFVDTSLLDSILSE | not soluble
MGSDKIHHHHHHMRLKITHRTEYRYDAPVQYLLQRLRLLPVSGQTQTVLSWALKVEGAREEVRFTDHYGNDTRLLSVEGDHDFITVEASGEVVTRDTSGVCGSHQGFAPLWLFAQETPLTAIGGGIRKLAEAVGTGTDIERLHRLMAMIGERVAYTPGSTKATTPAEEALALKTGVCQDHSHIFAAAARAMGFPSRYVSGYLMMDAVEQAASHAWAEAHVPGLGWVAFDPANGISPDERYVKVATGRDYRDASPVSGIRQGQAEERLAVTVTVEQ | not soluble
MGSDKIHHHHHHMRLTHVDQLNLPFGTLSSYHPYASAPGEAVPVSFDQQRHVGAGERPGSWMAISVSMPKAISREELERAWLEVIERHGTLRTVFSTGMGGEVQQHRIDVGPGKWIDHAVAPGESINEALRAVLNRQCSPYSRPSHSLCIIDAHPRPTVIIGSDHSHVDMWSMLVIVRDLLAALDMELPVEPPLAFESHTAELLAAPPAPERIHQRWREILEAGGGKMPQFPLPLGDAISMPERVEVRDIFGVNGLAIYSARARAQQVSSLALTISVMADVTAALADLPLRAVFPVHSRFDQRWHDSVGWFISNSVIEVPDSDPHTAAQAVREAVSLGSYPLAELLEPWGGMPETPGMFAISWLDLRRLPVSIDDIGLQAQYVSASLRTDGVMLWFILDRSGAHLRCRYPDSLVARENVGRWIDAIVAQMRAEAGTVNLQAGGEQLTLRHGTRADISEIAPLLARNAADPCELVDLEHALDLLTHESSHFLAVVRNARGKIIAAMQLTIVPEFSRGGALHLHIEGPFIIPEYRTTDLDKKLRAWAVEHGRARGVKVEEVVG | not soluble
MGSDKIHHHHHHMRNAVIFTGIPMQYPLELTFKFWALAPQISVIDAQGNLVFYVKQKLFKLKEAITIFADVERTRPLYYIKADRIIDFSARYEFTDSNGTNIGAVKRRGLKSLWRARYDIFDGDTTTLNIQEKNPWVKIADALFAEIPIVGIFTGYVFNPVYLVSRSDGTVVMRLEKIPSFLSRKFTIKQVDQISDREEQQVLLSLMMMLLLERNRG | not soluble
MGSDKIHHHHHHMRPAFAGIDFGTSNSTVGVVRNGQPHLVALEGGQVTLPSAVFFNFEDGRICFGRQAIANYTDSVEGRLMRSLKSVLGSSLAHEKTRIKARSIGFMEIIGLFLGHLRKKLEEDGGDLVETVVLGRPVQFVDDDPQADANAQSDLEKAAHAQGFKHIAFQFEPIAAALDYEQRVTREELALIIDMGGGTSDFSVVRVSPERARLPDRKDDILASRGVHIGGTDFDRLLSIAHVMPQLGYLTPTKDGKRNLPASYFIDLATWQRINLVYTAKAMTHLRQIRYEAARADLVDRFIHIVEHRYGHALAALVEKAKIELTDLSSAEVAVRLSDVEFAAEITRDGLDATIAREIERVTATVAETMRDAAVKPSDITAVFLTGGSTAIPLARREILSLVPQASVIDGDMFGSVGLGLALDAQRKFG | not soluble
MGSDKIHHHHHHMRPETAIIEIHGQYRIHTEFYGNPAAQQTIILVNGSLSTTASFAQTVKYLQPHYNVVLYDQPYAGQSKPHNENHTPISKECEARILLELIERFRAEVVMSFSWGGVATLLALAQRPGRIRRAVVNSFSPQLNPAMLDYLHRGLDYLAACDRTQIGNLVNETIGRYLPQLFKRYNFRHVSSLDEHEYHQMHFHIREVLRLNADSYTESFAGIEIPMLFMNGELDIYTTPHEARQFGQLIRGAEFHTIRNAGHFIDVEHKAAWQQTQDALLAFLRPQRTQPLNPIYRPQPNGASVPLAALAS | not soluble
